Experimental data as given in patent publication US20240158517A1 (HIFIBIO HK, published 2024).
Substitutions are numbered along the chain they refer to. Numbers in names are those of the source. Where two headings read alike, the source gives them in different places.

What was measured:
[1] = target: T1, human CXCR5 (human, UniProt P32302 1-372); experiment: flow cytometry on an adherent stable cell line expressing hCXCR5, MFI normalized on the benchmark MFI
T1 construct: whole, on cells; Always presented on cells; one entry is used for all cell lines; also called hCXCR5; C-X-C chemokine receptor type 5
T1 sequence (looked up): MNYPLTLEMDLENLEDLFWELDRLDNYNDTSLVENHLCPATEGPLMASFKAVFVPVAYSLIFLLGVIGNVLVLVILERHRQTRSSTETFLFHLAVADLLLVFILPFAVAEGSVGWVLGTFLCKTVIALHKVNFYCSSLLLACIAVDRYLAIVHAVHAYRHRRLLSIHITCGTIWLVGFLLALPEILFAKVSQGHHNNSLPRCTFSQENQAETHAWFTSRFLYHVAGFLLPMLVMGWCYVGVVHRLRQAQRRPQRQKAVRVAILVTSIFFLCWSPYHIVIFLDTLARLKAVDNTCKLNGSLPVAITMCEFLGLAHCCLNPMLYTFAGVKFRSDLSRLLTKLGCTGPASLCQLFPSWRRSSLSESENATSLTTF
Method: In order to test the binding capacity to CXCR5, six chimeric monoclonal antibodies were tested in binding assay using adherent stable cell line expressing the target antigen hCXCR5.

[2] = target: T2, murine CXCR5 (mouse, UniProt Q04683 1-374); experiment: flow cytometry on cells transiently transfected with murine CXCR5
T2 construct: whole, on cells; also called mouse CXCR5 ortholog
T2 sequence (looked up): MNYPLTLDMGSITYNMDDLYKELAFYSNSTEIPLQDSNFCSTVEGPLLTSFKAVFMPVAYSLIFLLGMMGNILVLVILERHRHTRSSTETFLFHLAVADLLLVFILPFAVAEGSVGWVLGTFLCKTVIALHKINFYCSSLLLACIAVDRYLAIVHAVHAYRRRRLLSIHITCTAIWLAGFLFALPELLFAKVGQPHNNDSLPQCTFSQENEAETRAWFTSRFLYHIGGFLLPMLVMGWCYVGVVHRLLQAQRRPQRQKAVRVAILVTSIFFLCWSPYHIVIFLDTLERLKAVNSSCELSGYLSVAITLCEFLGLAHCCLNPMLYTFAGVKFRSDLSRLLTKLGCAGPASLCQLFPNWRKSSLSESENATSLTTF

[3] = target: T3, cynomolgus CXCR5 (cynomolgus monkey, UniProt G8F5K4 1-372); experiment: flow cytometry on cells transiently transfected with cynomolgus CXCR5
T3 construct: whole, on cells; also called monkey CXCR5 ortholog
T3 sequence: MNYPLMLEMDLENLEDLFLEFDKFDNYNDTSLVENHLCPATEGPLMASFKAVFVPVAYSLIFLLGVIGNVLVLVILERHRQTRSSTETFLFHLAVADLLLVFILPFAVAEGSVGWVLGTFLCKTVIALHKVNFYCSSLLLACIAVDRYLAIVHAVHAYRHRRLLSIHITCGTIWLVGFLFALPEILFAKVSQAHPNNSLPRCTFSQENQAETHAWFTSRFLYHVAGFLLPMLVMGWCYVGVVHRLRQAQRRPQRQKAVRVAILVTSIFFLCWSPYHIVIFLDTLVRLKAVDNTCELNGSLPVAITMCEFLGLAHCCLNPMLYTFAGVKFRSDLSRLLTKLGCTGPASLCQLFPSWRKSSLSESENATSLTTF

[4] = target: T4, human CXCR3 (human, UniProt P49682 1-368, limits assumed); experiment: flow cytometry (MFI) on hCXCR3
T4 construct: also called hCXCR3
T4 sequence (looked up): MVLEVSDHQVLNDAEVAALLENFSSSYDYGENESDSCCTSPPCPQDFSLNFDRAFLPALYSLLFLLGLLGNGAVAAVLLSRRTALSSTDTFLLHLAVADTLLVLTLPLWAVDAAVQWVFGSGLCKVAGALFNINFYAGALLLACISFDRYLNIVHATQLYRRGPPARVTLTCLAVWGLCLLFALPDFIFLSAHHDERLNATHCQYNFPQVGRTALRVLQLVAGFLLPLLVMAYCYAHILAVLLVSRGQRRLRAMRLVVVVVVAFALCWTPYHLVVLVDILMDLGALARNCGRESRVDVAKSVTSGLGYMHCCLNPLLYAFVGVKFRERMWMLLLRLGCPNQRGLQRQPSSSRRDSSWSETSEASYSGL

[5] = target: T1, human CXCR5
[6] = target: T1, human CXCR5; experiment: flow cytometry on DX002 cells expressing CXCR5, MFI
[7] = target: T1, human CXCR5; experiment: flow cytometry on CXCR5+ Raji cells, MFI
[8] = target: T1, human CXCR5; experiment: cell-based or functional assay
[9] = target: T1, human CXCR5; experiment: flow cytometry on adherent DX002 cells expressing CXCR5, MFI
[10] = target: T1, human CXCR5; experiment: binding to hCXCR5, Exp 1 (assay not given)
[11] = target: T1, human CXCR5; experiment: binding to DX002 cells expressing CXCR5
[12] = target: T1, human CXCR5; experiment: binding to hCXCR5, Exp 2 (assay not given)
[13] = target: T2, murine CXCR5; experiment: flow cytometry, transiently transfected cells
[14] = target: T4, human CXCR3; experiment: specificity assay by flow cytometry
[15] = target: CD16 (UniProt P08637 17-254, limits assumed); experiment: cell-based or functional assay
Sequence of CD16 (P08637 17-254 limits assumed): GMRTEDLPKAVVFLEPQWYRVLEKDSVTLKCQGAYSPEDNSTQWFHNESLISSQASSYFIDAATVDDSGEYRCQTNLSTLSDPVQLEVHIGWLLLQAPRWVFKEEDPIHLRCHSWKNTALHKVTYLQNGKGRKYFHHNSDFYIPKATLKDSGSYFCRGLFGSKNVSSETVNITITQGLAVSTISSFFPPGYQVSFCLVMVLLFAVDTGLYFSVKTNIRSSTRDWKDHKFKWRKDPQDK

B1: HFB2-2-hG1 (antibody, V domains shown)
VH: EVQLVETGGGLVQPKGSLKLSCAASGFTFNTNAMNWVRQAPGKGLEWVARIRSKSNNYATHYVDSVKDRFTISRDDSQSMLYLQMNNLKTEDTAMYYCVSWDPFAYWGQGTLVTVSA
VL: NIMMTQSPSSLAVSAGEKVTMSCKSSQSVLYSSNQKNYLAWYQQKPGQSPKLLIYWASTRASGVPDRFTGSGSGTDFTLTISSVQTEDLAVYYCHQYLSSWTFGGGAKLEIK
notes: Mouse-human chimeric antibody, human IgG1 constant region
EC50 [1]: 482 pM | binding result [2]: no binding (tested: about 150 nM) | binding result [3]: no binding (tested: about 150 nM) | binding result [4]: no binding (tested: about 150 nM)

B2: HFB2-3-hG1 (antibody, V domains shown)
VH: QVQLKQSGPGLVQPSQSLSITCTVSGFSLTSYGVHWVRQSPGKGLEWLGVTWSGGRTDYNAAFISRLSINKDNSKSQVFFKMNSLQVNDTAIYYCARGGNYWGQGTSVTVSS
VL: not shown
notes: as for B1
EC50 [5]: 569 pM | binding result [2]: no binding (tested: about 150 nM) | binding result [3]: no binding (tested: about 150 nM) | binding result [4]: no binding (tested: about 150 nM)

B3: HFB2-1-hG1 (antibody, V domains shown)
VH: EVKLEESGGGLVQPGGSMKLSCVASGFTFSNYWMNWVRQSPEKGLEWVAQIRLKSDNYATHYTESVKGRFTISRDDSKSSVYLQMNNLRAEDTGIYYCTPPNFDYWGQGTTLTVSS
VL: DIVMTQAAPSVTVTPGESVTISCRSTTSLLHRSGKHKFYWFLQRPGQSPQLLIYYVSNLASGVPDRFSGSGSGTDFTLRISRVEAEDFGVYYCMQSLEFPLTFGTGTKLEIK
notes: Mouse-human chimeric antibody: murine VH and VL on the human IgG1 constant region
EC50 [1]: 481 pM | binding result [2]: no binding (tested: about 150 nM) | binding result [3]: no binding (tested: about 150 nM) | binding result [4]: no binding (tested: about 150 nM)

B4: afucosylated HFB2-4hz42-hG1 (antibody, V domains shown)
VH: QVQLVQSGAEVKKPGASVKVSCKASGFSLTSYGVSWVRQAPGQGLEWMGVIWGDGSTNYAQKLQGRVTMTKDTSTSTAYMELRSLRSDDTAVYYCARVVYWGQGTLVTVSS
VL: EIVMTQSPATLSVSPGERATLSCRSSKSLLHSNGKTYLYWFQQKPGQAPRLLIYRMSNLASGIPARFSGSGSGTEFTLTISSVQSEDVAVYYCMQHLEYPYTFGQGTKLEIK
modifications: afucosylated (no core fucose on the Fc N-glycan of the heavy chain)
notes: Afucosylated format of humanized HFB2-4hz42-hG1 (human IgG1); also called afu-HFB2-4hz42-hG1; Afu-HFB2-4hz42-hG1
EC50 [6]: 820 pM

B5: HFB2-4hz42hG1 (antibody, V domains shown)
VH: B4 VH
VL: B4 VL
notes: Humanized, human IgG1 (hG1); also called HFB2-VH10VL6
EC50 (read off the curve) [7]: ~300 pM

B6: HFB2-4hG1DE (antibody, V domains shown)
VH: QVQLKESGPGLVAPSQSLSITCTVSGFSLTSYGVSWVRQPPGKGLEWLGVIWGDGSTNYHSGLISRLSISKDNSKSQVFLKLNSLQSDDTATYYCARVVYWGQGTLVTVSA
VL: DIVMTQAAPSVPVTPGESISISCRSSKSLLHSNGKTYLYWFLQRPGQSPQLLLYRMSNLASGVPDRFSGSGSGTAFTLRISRVEAEDVGVYYCMQHLEYPYTFGGGTKLEIK
notes: Chimeric HFB2-4 in the DE scaffold: human IgG1 constant region with S239D/I332E; also called HFB2-4DE
ADCC lysis of Raji cells by primary NK cells, EC50 [8]: 0.76 pM | ADCC lysis of peripheral primary B cells by primary NK cells, EC50 [8]: 0.00044 pM | EC50 [9]: 112 pM | EC50 [10]: 1000 pM | EC50 [11]: 186 pM | EC50 [12]: 1300 pM

B7: afucosylated HFB2-4hG1 (antibody, V domains shown)
VH: B6 VH
VL: B6 VL
modifications: afucosylated (no core fucose on the Fc N-glycan of the heavy chain)
notes: Afucosylated format of the chimeric HFB2-4hG1 (human IgG1, no DE mutation); also called afu-HFB2-4hG1; AfuHFB2-4hG1
EC50 [6]: 810 pM

B8: HFB2-5-hG1 (antibody, V domains shown)
VH: B6 VH with G62T, S87T, V99A
VL: B6 VL with V11I, I19V, L53I
notes: as for B1
binding result [13]: no binding | EC50 [1]: 3430 pM | binding result [14]: no binding | binding result [3]: no binding (tested: about 150 nM)

B9: HFB2-4hz9-hG1DE (antibody, V domains shown)
VH: QVQLQESGPGLVKPSETLSLTCTVSGFSLTSYGVSWVRQPPGKGLEWIGVIWGDGSTNYNPSLKSRVTISKDTSKNQVSLKLSSVTAADTAVYYCARVVYWGQGTLVTVSS
VL: DIVMTQSPLSLPVTPGEPASISCRSSKSLLHSNGKTYLYWFLQKPGQSPQLLIYRMSNLASGVPDRFSGSGSGTDFTLKISRVEAEDVGVYYCMQHLEYPYTFGGGTKVEIK
notes: Humanized (VH3/VL1), human IgG1 constant region with S239D/I332E (hG1DE)
ADCC activity, EC50 [15]: 1 to 2 pM | EC50 [10]: 1300 pM | EC50 [12]: 1000 pM
